From the supplement of paper PMC10724198
± gives the standard deviation of the averaged measurements.

Test system: Saccharomyces cerevisiae
Assay: protein stability index of tFT-peptide fusion (C-terminal peptide) (PSI (0-1 scale)); higher = more stable (slower turnover)
Conditions: genetic background: wild type; temperature: 30 C
Method: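 Multiplexed protein stability (MPS) profiling in S. cerevisiae. Random 12-aa peptides (tFT-X12 library) are fused to the C-terminus of a sfGFP-mCherry tandem fluorescent timer, after mCherry and a GGGS linker. Cells are FACS-sorted into 8 mCherry/sfGFP bins and deep-sequenced. The protein stability index (PSI) is the read-weighted bin average, scaled from 0 (unstable) to 1 (stable). Only peptides with >10 reads are reported; cells were grown at 30 °C in SC-His with glucose.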
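Note: PSI is a weighted mean of sequencing reads over stability bins, variants kept only with over 10 reads, mCherry proximal and sfGFP distal, peptide attached via GGGS linker.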

Row | Sequence | protein stability index
1 | GHIQDSLSPDPH | 0.613 ± 0.013
2 | GHSLDPSVVSPD | 0.674 ± 0.068
3 | GHVLVRHNVLAV | 0.58 ± 0.026
4 | GHYPCLPFLFPL | 0.707 ± 0.087
5 | GIDVGCEWYQGG | 0.698 ± 0.037
6 | GIEKEADRVRKN | 0.659 ± 0.07
7 | GIGGYACHFYVW | 0.673 ± 0.012
8 | GIGSSKESGGLW | 0.737 ± 0.05
9 | GIGVGGIHGGIL | 0.7547 ± 0.0044
10 | GIRAVRYFNSCC | 0.598 ± 0.011
11 | GIRFGLVCYPNF | 0.6537 ± 0.0025
12 | GIRVEWVGRNRC | 0.676 ± 0.023
13 | GISFFPVGGPLI | 0.735 ± 0.062
14 | GISPDGSSIMAA | 0.689 ± 0.02
15 | GITCAEGAAMKR | 0.676 ± 0.022
16 | GIVGFSHGIISL | 0.703 ± 0.032
17 | GIYARPRPTQCP | 0.6718 ± 0.0037
18 | GIYLEESPMRKF | 0.708 ± 0.014
19 | GKERIYVYGWSK | 0.686 ± 0.016
20 | GKEWRGSGGMRR | 0.646 ± 0.014
21 | GKGKETKELIGK | 0.711 ± 0.023
22 | GKLGSSPQLRYY | 0.704 ± 0.046
23 | GKLRTVVCMCYI | 0.643 ± 0.1
24 | GKNKRERNRSSG | 0.771 ± 0.14
25 | GKRGGTGAGEKR | 0.66 ± 0.071

Row | Sequence | protein stability index
26 | GKRVNLNITSHS | 0.683 ± 0.024
27 | GKSHLGGSLTVL | 0.671 ± 0.034
28 | GKSVVAHGLLGG | 0.6702 ± 0.0018
29 | GKSYWYDSGNMM | 0.752 ± 0.078
30 | GLACSRYVLFWK | 0.562 ± 0.023
31 | GLAYGICYRVVL | 0.637 ± 0.011
32 | GLCTSIFSVVFF | 0.679 ± 0.092
33 | GLCVTEFCGFFL | 0.705 ± 0.019
34 | GLDVFFPMDRQA | 0.764 ± 0.08
35 | GLGALPVRVWEG | 0.731 ± 0.034
36 | GLGGPYNSHMFT | 0.991 ± 0.013
37 | GLGGYVIKYIMI | 0.572 ± 0.02
38 | GLGLAFRGSFVL | 0.69 ± 0.056
39 | GLGREVAIMNTW | 0.669 ± 0.058
40 | GLGWGGRGMRVV | 0.695 ± 0.026
41 | GLMGWGLFCGFG | 0.7759 ± 0.0043
42 | GLPRAANMKGSE | 0.652 ± 0.011
43 | GLREGRRRSNDQ | 0.653 ± 0.12
44 | GLRFIAMNIQML | 0.658 ± 0.026
45 | GLRIRFSNSYVG | 0.688 ± 0.057
46 | GLRLCLSMWLRD | 0.633 ± 0.054
47 | GLRTPHASVPPQ | 0.66 ± 0.023
48 | GLSDLTFFKRLF | 0.659 ± 0.036
49 | GLSIVCRHYEES | 0.685 ± 0.022
50 | GLSLLVDLNVWF | 0.569 ± 0.034

Row | Sequence | protein stability index
51 | GLSSNVTSSTLS | 0.685 ± 0.015
52 | GLTSRIAAGRQR | 0.696 ± 0.022
53 | GLTWLVLGFPGS | 0.757 ± 0.052
54 | GLVGRGGAVGEW | 0.68596 ± 0.00038
55 | GLVSGGFYFGLL | 0.681 ± 0.054
56 | GLVVCGGQVVEG | 0.704 ± 0.042
57 | GLVWGGCGTVGG | 0.768 ± 0.17
58 | GLVWGGGGTVGG | 0.73 ± 0.12
59 | GLVWRSRDDQLS | 0.764 ± 0.07
60 | GLYSGGLGAGVG | 0.658 ± 0.092
61 | GMGTWSSNRREC | 0.872 ± 0.18
62 | GMLLCAGGISKG | 0.584 ± 0.011
63 | GMVFGLAWCGCL | 0.619 ± 0.046
64 | GNHNGKIILDNR | 0.679 ± 0.023
65 | GNNREGYRSAQA | 0.599 ± 0.054
66 | GNVLIRFSCSDS | 0.754 ± 0.05
67 | GNWRGLRLMSAP | 0.7603 ± 0.0062
68 | GPAGGGRLECGV | 0.7157 ± 0.0069
69 | GPCTTFVVLLPE | 0.778 ± 0.14
70 | GPFGCLRSLIRG | 0.642 ± 0.097
71 | GPGAGRRKSAER | 0.61607 ± 0.00056
72 | GPGGVGGTSGGK | 0.69 ± 0.062
73 | GPGVGYGRWRGG | 0.667 ± 0.094
74 | GPHGNPGLAPLA | 0.7282 ± 0.0021
75 | GPLRPTPAPNRT | 0.644 ± 0.0079

Row | Sequence | protein stability index
76 | GPPFAPASPVPL | 0.761 ± 0.038
77 | GPPPPPPFPPLP | 0.708 ± 0.0076
78 | GPRQGVLEAASS | 0.636 ± 0.025
79 | GPSIYGFEESFS | 0.691 ± 0.0093
80 | GPSPPSPSPPPL | 0.622 ± 0.0084
81 | GPSRTPRHPSPP | 0.701 ± 0.053
82 | GPSWYGKNSLHK | 0.686 ± 0.051
83 | GPVTDWPLLLFK | 0.5901 ± 0.0015
84 | GQDNSEVLGSVQ | 0.668 ± 0.12
85 | GQHAAVNASVVR | 0.665 ± 0.013
86 | GQIACSECGGGG | 0.679 ± 0.027
87 | GQKRKGTRSKVP | 0.696 ± 0.026
88 | GQSGFGYVGSMK | 0.669 ± 0.049
89 | GQSLGLPGRWYI | 0.775 ± 0.06
90 | GQTMDLRKCTGP | 0.6436 ± 0.0037
91 | GQVGDRVVSVGL | 0.694 ± 0.028
92 | GQWCVAAALIER | 0.699 ± 0.1
93 | GQWGGATLGLVG | 0.777 ± 0.021
94 | GRAGLRIESSKY | 0.692 ± 0.024
95 | GRAVCRALVEAR | 0.552 ± 0.031
96 | GRCIPSFVLPRY | 0.693 ± 0.029
97 | GRCSRGVEGVSG | 0.675 ± 0.034
98 | GRCWVMCSEGEK | 0.64 ± 0.057
